Laboratory results published in patent US9273099 (Dana-Farber, dated 2016).
Values belong to the molecule of their own block, whether it stands above or below them. Where no end group is shown, it is not given here. The star is where a group is joined. FITC = O=C1OC2(c3ccc(O)cc3Oc3cc(O)ccc32)c2ccc(NC(=S)*)cc21; βAla = NCCC(=O)O

Key:
[1] = target: C-terminal deleted GST-BCL-2 (UniProt P10415); assay: fluorescence polarization, displacement of prebound FITC-BID BH3 from BCL-2
[2] = target: C-terminal deleted GST-BCL-2 (UniProt P10415); assay: fluorescence polarization binding
[3] = target: C-terminal deleted GST-BCL-2 (UniProt P10415); assay: direct fluorescence polarization, 25 nM fluoresceinated peptide with GST-BCL2 25-1000 nM
[4] = target: C-terminal deleted GST-BCL-2 (UniProt P10415); assay: direct fluorescence polarization
[5] = target: C-terminal deleted GST-BCL-2 (UniProt P10415); assay: fluorescence polarization competitive binding, FITC-BID BH3 as competitor
[6] = target: C-terminal deleted GST-BCL-2 (UniProt P10415); assay: fluorescence polarization, displacement of FITC-BID BH3 from BCL-2
[7] = target: C-terminal deleted GST-BCL-2 (UniProt P10415); assay: fluorescence polarization direct binding
Full-length BAX protein = target: T1, Full-length BAX protein (UniProt Q07812 1-192, limits assumed); assay: BAX fluorescence polarization direct binding assay
T1 construct: mature
T1 sequence (Q07812 whole entry): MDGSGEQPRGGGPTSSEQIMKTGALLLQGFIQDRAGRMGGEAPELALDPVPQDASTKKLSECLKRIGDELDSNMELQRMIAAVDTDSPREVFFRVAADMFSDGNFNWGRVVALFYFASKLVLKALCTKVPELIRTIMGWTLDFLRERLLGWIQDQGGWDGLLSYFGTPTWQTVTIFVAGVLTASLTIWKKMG

IC50 [1]: 173 nM
Kd [2]: 41 nM
Molecule: BAD BH3 domain peptide (from UniProt Q92934 103-127)

Kd [3]: 483 nM
Molecule: FITC-SAHB3BID(G→E)A (peptide)

fold enhancement in binding affinity against unmodified BID BH3 [4]: > 6 fold
fold enhancement in binding affinity against unmodified BID BH3 peptide [4]: 6 fold
Kd [3]: 38.8 nM
Molecule: FITC-SAHB3BIDA (peptide)

fold drop against the 23-mer SAHB3BIDB [5]: > 6 fold
Molecule: SAHB3BID(tr)B (16-mer) (peptide)

IC50 [6]: 62 nM
fold increase in displacement potency against unmodified BID BH3 peptide [6]: > 13 fold
Molecule: SAHB3BIDA (unlabeled) (peptide)

Kd [7]: 220 nM
binding result (Full-length BAX protein): no binding
B1: FITC-labeled unmodified BID BH3 peptide (peptide, UniProt P55957 80-101, looked up)
peptide: {FITC-βAla}-EDIIRNIARHLAQVGDSMDRSI
notes: domain: BH3; also called FITC-BID BH3; FITC-labeled BID BH3 peptide
